Experimental data published in patent US12698507B2, “Methods and compositions for conferring and/or enhancing herbicide tolerance using protoporphyrinogen IX oxidase of various cyanobacteria or variant thereof” (FarmHannong Co., Ltd., priority 2019, dated 2026).

B1: CyPPO19 L327T + I408R + F360M: variant of CyPPO19 PPO protein (SEQ ID NO: 1) (protein)
chain: MSEVDVAIVGGGLSGLSLAWRLQQSAPQYSVVLLEASDRLGGNITTQTAEGFVWELGPNSFAPTPALLQLIAEVGLQSELIRGDRHLPRYIYWRGQLYPLQPTRPLALATSNLLSPWGKVRAALGALGFVPPYLGSGDESVNSFFRRHLGQEVAERLVAPFVSGVYAGDPQQLSAAAAFRRIAQLEKLGGGLIAGALHLRRQQAPKPKPPTSVQMRPGELGSFKEGLAALPRAIAQQLKAPIHLQTPVQEITPDPKGGYLLRSGEQTWRARSVVLATPAYQTAELVAPFQPAIARVLATIPYPTVACVVLAYPAGLGRSVRPGFGVTIPRSQGIRTLGTIWSSCLFPQRTPAGWQVFTSMIGGATDPDLASLSEEAIVQQVQQDLNRLLDLPAAKARLLGMKVWRRARPQYMVGYPEQWQQVTHALSQTPGLFLCSNYAEGVALGDRVEHGNRTAAAVAAYLSGGQP
modifications: Synthetic_PPO of Thermosynechococcus elongatus PKUAC-SCTE542 (comprising GenBank No. CP032152.1)
B2: CyPPO19 L327T + I408W + F360V: variant of CyPPO19 PPO protein (SEQ ID NO: 1) (protein)
chain: MSEVDVAIVGGGLSGLSLAWRLQQSAPQYSVVLLEASDRLGGNITTQTAEGFVWELGPNSFAPTPALLQLIAEVGLQSELIRGDRHLPRYIYWRGQLYPLQPTRPLALATSNLLSPWGKVRAALGALGFVPPYLGSGDESVNSFFRRHLGQEVAERLVAPFVSGVYAGDPQQLSAAAAFRRIAQLEKLGGGLIAGALHLRRQQAPKPKPPTSVQMRPGELGSFKEGLAALPRAIAQQLKAPIHLQTPVQEITPDPKGGYLLRSGEQTWRARSVVLATPAYQTAELVAPFQPAIARVLATIPYPTVACVVLAYPAGLGRSVRPGFGVTIPRSQGIRTLGTIWSSCLFPQRTPAGWQVFTSVIGGATDPDLASLSEEAIVQQVQQDLNRLLDLPAAKARLLGMKVWRRAWPQYMVGYPEQWQQVTHALSQTPGLFLCSNYAEGVALGDRVEHGNRTAAAVAAYLSGGQP
modifications: Synthetic_PPO of Thermosynechococcus elongatus PKUAC-SCTE542 (comprising GenBank No. CP032152.1)
B3: CyPPO19 R89A + V165C + A167C + F360I: variant of CyPPO19 PPO protein (SEQ ID NO: 1) (protein)
chain: MSEVDVAIVGGGLSGLSLAWRLQQSAPQYSVVLLEASDRLGGNITTQTAEGFVWELGPNSFAPTPALLQLIAEVGLQSELIRGDRHLPAYIYWRGQLYPLQPTRPLALATSNLLSPWGKVRAALGALGFVPPYLGSGDESVNSFFRRHLGQEVAERLVAPFVSGCYCGDPQQLSAAAAFRRIAQLEKLGGGLIAGALHLRRQQAPKPKPPTSVQMRPGELGSFKEGLAALPRAIAQQLKAPIHLQTPVQEITPDPKGGYLLRSGEQTWRARSVVLATPAYQTAELVAPFQPAIARVLATIPYPTVACVVLAYPAGLGRSVRPGFGVLIPRSQGIRTLGTIWSSCLFPQRTPAGWQVFTSIIGGATDPDLASLSEEAIVQQVQQDLNRLLDLPAAKARLLGMKVWRRAIPQYMVGYPEQWQQVTHALSQTPGLFLCSNYAEGVALGDRVEHGNRTAAAVAAYLSGGQP
modifications: Synthetic_PPO of Thermosynechococcus elongatus PKUAC-SCTE542 (comprising GenBank No. CP032152.1)
B4: CyPPO19 R89A + V165S + V305M + F360M: variant of CyPPO19 PPO protein (SEQ ID NO: 1) (protein)
chain: MSEVDVAIVGGGLSGLSLAWRLQQSAPQYSVVLLEASDRLGGNITTQTAEGFVWELGPNSFAPTPALLQLIAEVGLQSELIRGDRHLPAYIYWRGQLYPLQPTRPLALATSNLLSPWGKVRAALGALGFVPPYLGSGDESVNSFFRRHLGQEVAERLVAPFVSGSYAGDPQQLSAAAAFRRIAQLEKLGGGLIAGALHLRRQQAPKPKPPTSVQMRPGELGSFKEGLAALPRAIAQQLKAPIHLQTPVQEITPDPKGGYLLRSGEQTWRARSVVLATPAYQTAELVAPFQPAIARVLATIPYPTMACVVLAYPAGLGRSVRPGFGVLIPRSQGIRTLGTIWSSCLFPQRTPAGWQVFTSMIGGATDPDLASLSEEAIVQQVQQDLNRLLDLPAAKARLLGMKVWRRAIPQYMVGYPEQWQQVTHALSQTPGLFLCSNYAEGVALGDRVEHGNRTAAAVAAYLSGGQP
modifications: Synthetic_PPO of Thermosynechococcus elongatus PKUAC-SCTE542 (comprising GenBank No. CP032152.1)
B5: CyPPO19 V165C + F360L: variant of CyPPO19 PPO protein (SEQ ID NO: 1) (protein)
chain: MSEVDVAIVGGGLSGLSLAWRLQQSAPQYSVVLLEASDRLGGNITTQTAEGFVWELGPNSFAPTPALLQLIAEVGLQSELIRGDRHLPRYIYWRGQLYPLQPTRPLALATSNLLSPWGKVRAALGALGFVPPYLGSGDESVNSFFRRHLGQEVAERLVAPFVSGCYAGDPQQLSAAAAFRRIAQLEKLGGGLIAGALHLRRQQAPKPKPPTSVQMRPGELGSFKEGLAALPRAIAQQLKAPIHLQTPVQEITPDPKGGYLLRSGEQTWRARSVVLATPAYQTAELVAPFQPAIARVLATIPYPTVACVVLAYPAGLGRSVRPGFGVLIPRSQGIRTLGTIWSSCLFPQRTPAGWQVFTSLIGGATDPDLASLSEEAIVQQVQQDLNRLLDLPAAKARLLGMKVWRRAIPQYMVGYPEQWQQVTHALSQTPGLFLCSNYAEGVALGDRVEHGNRTAAAVAAYLSGGQP
modifications: Synthetic_PPO of Thermosynechococcus elongatus PKUAC-SCTE542 (comprising GenBank No. CP032152.1)
B6: CyPPO19 R89A + V165C + L327T + F360V: variant of CyPPO19 PPO protein (SEQ ID NO: 1) (protein)
chain: MSEVDVAIVGGGLSGLSLAWRLQQSAPQYSVVLLEASDRLGGNITTQTAEGFVWELGPNSFAPTPALLQLIAEVGLQSELIRGDRHLPAYIYWRGQLYPLQPTRPLALATSNLLSPWGKVRAALGALGFVPPYLGSGDESVNSFFRRHLGQEVAERLVAPFVSGCYAGDPQQLSAAAAFRRIAQLEKLGGGLIAGALHLRRQQAPKPKPPTSVQMRPGELGSFKEGLAALPRAIAQQLKAPIHLQTPVQEITPDPKGGYLLRSGEQTWRARSVVLATPAYQTAELVAPFQPAIARVLATIPYPTVACVVLAYPAGLGRSVRPGFGVTIPRSQGIRTLGTIWSSCLFPQRTPAGWQVFTSVIGGATDPDLASLSEEAIVQQVQQDLNRLLDLPAAKARLLGMKVWRRAIPQYMVGYPEQWQQVTHALSQTPGLFLCSNYAEGVALGDRVEHGNRTAAAVAAYLSGGQP
modifications: Synthetic_PPO of Thermosynechococcus elongatus PKUAC-SCTE542 (comprising GenBank No. CP032152.1)

Tested on: PPO-deficient BT3 E. coli (ΔPPO)
Test: PPO-inhibiting herbicide tolerance test of PPO variants in E. coli (growth on herbicide-containing LB agar)
Type: cell-based
Settings: CyPPO19 variants in BT3 (ΔPPO) E. coli; LB agar with 0 to 2,000 μM herbicide, 37° C., dark, 16-20 hours
Outline: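 PPO-deficient BT3 E. coli expressing each variant from pET303 were diluted to OD600=0.5, then 10-fold serially, and spotted on LB-ampicillin agar with 0 to 2,000 μM herbicide. After 16-20 h at 37° C. in the dark, growth relative to wild type was scored from '−' (equivalent) to '+' per 10-fold resistance, max '+++++'.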

| Molecule | tolerance level relative to wild type, Carfentrazone | tolerance level relative to wild type, Flumioxazin | tolerance level relative to wild type, Fomesafen | tolerance level relative to wild type, Oxyfluorfen | tolerance level relative to wild type, Saflufenacil | tolerance level relative to wild type, Sulfentrazone | tolerance level relative to wild type, Tiafenacil |
| --- | --- | --- | --- | --- | --- | --- | --- |
| B1 | + (‘+’ per each 10-fold resistance) | +++++ (until ‘+++++’ as maximal resistance) | ++ (‘+’ per each 10-fold resistance) | +++ (‘+’ per each 10-fold resistance) | +++ (‘+’ per each 10-fold resistance) | + (‘+’ per each 10-fold resistance) | +++++ (until ‘+++++’ as maximal resistance) |
| B2 | ++ (‘+’ per each 10-fold resistance) | +++++ (until ‘+++++’ as maximal resistance) | +++++ (until ‘+++++’ as maximal resistance) | +++++ (until ‘+++++’ as maximal resistance) | +++++ (until ‘+++++’ as maximal resistance) | ++++ (‘+’ per each 10-fold resistance) | +++++ (until ‘+++++’ as maximal resistance) |
| B3 | + (‘+’ per each 10-fold resistance) | +++ (‘+’ per each 10-fold resistance) | ++ (‘+’ per each 10-fold resistance) | + (‘+’ per each 10-fold resistance) | +++ (‘+’ per each 10-fold resistance) | ++ (‘+’ per each 10-fold resistance) | +++ (‘+’ per each 10-fold resistance) |
| B4 | + (‘+’ per each 10-fold resistance) | +++++ (until ‘+++++’ as maximal resistance) | +++ (‘+’ per each 10-fold resistance) | ++ (‘+’ per each 10-fold resistance) | +++++ (until ‘+++++’ as maximal resistance) | +++ (‘+’ per each 10-fold resistance) | +++++ (until ‘+++++’ as maximal resistance) |
| B5 | + (‘+’ per each 10-fold resistance) | ++++ (‘+’ per each 10-fold resistance) | +++ (‘+’ per each 10-fold resistance) | ++ (‘+’ per each 10-fold resistance) | ++++ (‘+’ per each 10-fold resistance) | ++++ (‘+’ per each 10-fold resistance) | ++++ (‘+’ per each 10-fold resistance) |
| B6 | + (‘+’ per each 10-fold resistance) | ++++ (‘+’ per each 10-fold resistance) | + (‘+’ per each 10-fold resistance) | + (‘+’ per each 10-fold resistance) | +++ (‘+’ per each 10-fold resistance) | ++ (‘+’ per each 10-fold resistance) | +++ (‘+’ per each 10-fold resistance) |
